Patent US20030078221, “High affinity nucleic acid ligands of complement system proteins” (Gilead Sciences, Inc., published 2003)

Assays:
Complement C5 [1] = molecular target: T1, Complement C5 (Homo sapiens, UniProt P01031;P01031 P01031:19-673,P01031:678-1676); assay: filter; minimal binding truncate; conditions: tags: Quidel; stem-loop with UUU bulge
Experimental: (§1) Individual cloned DNA was T7 transcribed with α-[³²P]-ATP and the full length [³²P]-2′-NH₂-RNA or 2′-F-RNA was gel-purified (as above). RNA was suspended at approximately 5,000 cpm per 30 μL sample (<10 pM), and aliquots were incubated with various concentrations of C1q, C3 or C5 in MgPBS for 10 minutes at 37° C. Samples were then filtered through nitrocellulose, the filters washed with buffer and dried under an infrared lamp, and counted with addition of scintillation fluid (Ecoscint A, National Diagnostics, Atlanta, Ga.). A background sample of RNA alone was run in parallel. […] Filters were washed and counted.

Complement C1q [2] = molecular target: T2, Complement C1q (UniProt P02745;P02746;P02747 P02745:23-245,P02746:28-253,P02747:29-245); assay: filter; above background at 0.1 and 0.5 nM C1q; conditions: tags: Quidel; chain copies: 6
T2 sequence (P02745 23-245, chain 1 of 3): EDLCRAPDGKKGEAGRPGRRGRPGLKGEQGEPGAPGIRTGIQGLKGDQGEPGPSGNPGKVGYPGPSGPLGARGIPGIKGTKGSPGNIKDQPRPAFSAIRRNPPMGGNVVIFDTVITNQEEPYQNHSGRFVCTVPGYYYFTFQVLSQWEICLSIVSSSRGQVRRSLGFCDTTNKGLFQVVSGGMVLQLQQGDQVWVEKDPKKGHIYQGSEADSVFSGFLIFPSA
T2 sequence (P02746 28-253, chain 2 of 3): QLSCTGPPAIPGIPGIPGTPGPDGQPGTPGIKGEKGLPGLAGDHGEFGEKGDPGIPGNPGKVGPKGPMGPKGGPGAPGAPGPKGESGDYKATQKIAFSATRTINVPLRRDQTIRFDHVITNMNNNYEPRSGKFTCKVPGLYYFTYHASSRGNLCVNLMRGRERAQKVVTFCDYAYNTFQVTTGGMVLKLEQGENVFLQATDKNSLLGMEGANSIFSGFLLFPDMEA
T2 sequence (P02747 29-245, chain 3 of 3): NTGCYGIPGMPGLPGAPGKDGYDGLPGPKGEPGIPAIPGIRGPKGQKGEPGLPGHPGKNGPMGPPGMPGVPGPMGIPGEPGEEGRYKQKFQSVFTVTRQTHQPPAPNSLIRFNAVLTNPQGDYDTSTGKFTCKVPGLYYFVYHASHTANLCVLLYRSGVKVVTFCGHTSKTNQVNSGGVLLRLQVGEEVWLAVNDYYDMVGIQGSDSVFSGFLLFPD

Complement C5 [3] = molecular target: T1, Complement C5; assay: filter; Kd not given; conditions: tags: Quidel
Complement C1q [4] = molecular target: T2, Complement C1q; assay: filter; MgPBS 37C; SEQ 12 in listing differs from Table 2 near the 3' end; conditions: tags: Quidel; chain copies: 6
Experimental: as §1

Complement C5 [5] = molecular target: T1, Complement C5; assay: filter; MgPBS 37C; conditions: tags: Quidel
Experimental: as §1
(§2) Sequences were grouped according to homology and function.

Complement C1q [6] = molecular target: T2, Complement C1q; assay: FP; nitrocellulose filter binding, MgPBS 37C; conditions: tags: Quidel; chain copies: 6
Experimental: as §1

Complement C1q [7] = molecular target: T2, Complement C1q; assay: filter; above background; SEQ 13 in listing differs from Table 2 near the 3' end; conditions: tags: Quidel; chain copies: 6
Complement C5 [8] = molecular target: T1, Complement C5; assay: filter; Group I affinities stated very similar; conditions: tags: Quidel
Experimental: as §1, §2

Complement C1q [9] = molecular target: T2, Complement C1q; assay: filter; above background; SEQ 20 in listing differs from Table 2; conditions: tags: Quidel; chain copies: 6
Complement C5 [10] = molecular target: T1, Complement C5; assay: filter; conditions: tags: Quidel
Complement C1q [11] = molecular target: T2, Complement C1q; assay: filter; MgPBS 37C; conditions: tags: Quidel; chain copies: 6
Experimental: as §1

Complement C5 [12] = molecular target: T1, Complement C5; assay: filter; reduced binding; conditions: tags: Quidel
Complement C5 [13] = molecular target: T1, Complement C5; assay: filter; >10-fold over background at 100 and 10 nM C5; 2'-OMe interference; conditions: tags: Quidel
From the text: The partially substituted 2′-OMe oligonucleotides were 5′-[³²P] -kinase-labeled. […] The oligonucleotides were eluted from the protein, alkaline hydrolyzed and then run on a 20% acrylamide/7 M urea/TBE sequencing gel. On adjacent tracks were run oligonucleotides not selected with C5. Band intensities were quantitated with on an Instantlmager (Packard, Meriden, Conn.).

Question: For CGAUGCGGUCUCAUGCGUCGAGUGUGAGUUUACCUUCG (ssRNA, 2'-F pyrimidines) [C6 38mer truncate], which Kd (Complement C5 [1]) is on record?
Answer: Its Kd is 20 nM.

B1: C1q clone 30 (ssRNA)
RNA: GGGAGGACGAUGCGGGUGGAGUGGGGAUCAUACGGCUGGUAGCACGAGCUCCCUAACAGCGGUCAGACGACUCGCCCGA
modifications: 2'-NH2 pyrimidines
Question: Does B1 bind (Complement C1q [2])?
Answer: Result: binds

Question: Does GACGAUGCGGUCUCAUGCGUCGAGUGUGAGUUUACCUUCGUC (ssRNA, 2'-F pyrimidines) [C6 42mer truncate] bind (Complement C5 [3])?
Answer: Result: binds

B2: C1q clone 50 (ssRNA)
RNA: GGGAGGACGAUGCGGGUGGAGUGGAGGUAUAACGGCCGGUAGCGCAUCCCACUCGGGUCUGUGCUAGACGACUCGCCCGA
modifications: 2'-NH2 pyrimidines
Question: How did the Kd (Complement C1q [4]) turn out when B2 was run?
Answer: The Kd was 0.979 nM.

Question: Which Kd (Complement C5 [5]) does the source give for GGGAGGAGGAUCGGUGUUCAGCAUUCAGAUCUUCAGACGACUCGCCCGA (ssRNA, 2'-F pyrimidines) [E4c] here?
Answer: Its Kd is 50 nM.

B3: C1q clone 47 (ssRNA)
RNA: GGGAGGACGAUGCGGGUGGAGCGGAGGUUUAUACGGCUGGUAGCUCGAGCUCCCUAACACGCGGUAGACGACUCGCCCGA
modifications: 2'-NH2 pyrimidines
Question: Does B3 bind (Complement C1q [2])?
Answer: Result: binds

B4: E5c/E11 (ssRNA)
RNA: GGGAGGACGAUGCGGUCCGGCGCGCUGAGUGCCGGUUAUCCUCGUCAGACGACUCGCCCGA
modifications: 2'-F pyrimidines
Question: B4 was tested. Which Kd (Complement C5 [5]) did it give?
Answer: The Kd was 60 nM.

B5: C1q clone 36 (ssRNA)
RNA: GGGAGGACGAUGCGGGAGGAGUGGAGGUAAACAAUAGGCCGGUAGCGACUCCCACUAACAGCCUCAGACGACUCGCCCGA
modifications: 2'-NH2 pyrimidines
Question: B5 was tested. Which Kd (Complement C1q [6]) did it give?
Answer: The Kd was 0.29 nM.

B6: C1q clone 12 (ssRNA)
RNA: GGGAGGACGAUGCGGGUGGAGUGGAGGUAAACAAUAGGUCGGUAGCGACUCCCAGUAACGGCCUCAGACGACUCGCCCGA
modifications: 2'-NH2 pyrimidines
Question: Does B6 bind (Complement C1q [2])?
Answer: Result: binds

B7: C1q clone 78 (ssRNA)
RNA: GGGAGGACGAUGCGGGUGGAGUGGAGGGUAAACAAUGGCUGGUGGCAUUCGGAAUCUCCCAACGUAGACGACUCGCCCGA
modifications: 2'-NH2 pyrimidines
Question: Does B7 bind (Complement C1q [7])?
Answer: Result: binds

B8: A6 (ssRNA)
RNA: GGGAGGACGAUGCGGUCCGGCGCGCUGAGUGCCGGUUUAUCCUCGUCAGACGACUCGCCCGA
modifications: 2'-F pyrimidines
Question: With B8 as the binder, how does the Kd (Complement C5 [5]) read?
Answer: Its Kd is 35 nM.

B9: F8 (ssRNA)
RNA: GGGAGGACGAUGCGGUCUCAUGCGCCGAGUGUGAGUUUACCUUCGUCAGACGACUCGCCCGA
modifications: 2'-F pyrimidines
Question: With B9 as the binder, how does the Kd (Complement C5 [5]) read?
Answer: Its Kd is 30 nM.

B10: G7 (ssRNA)
RNA: GGGAGGACGAUGCGGUCUGCUACGCUGAGUGGCUGUUUACCUUCGUCAGACGACUCGCCCGA
modifications: 2'-F pyrimidines
Question: Does B10 bind (Complement C5 [8])?
Answer: Result: binds

B11: H1 (ssRNA)
RNA: GGGAGGACGAUGCGGUCGGAUGCGCCGAGUCUCCGUUUACCUUCGUCAGACGACUCGCCCGA
modifications: 2'-F pyrimidines
Question: Does B11 bind (Complement C5 [8])?
Answer: Result: binds

B12: K7 (ssRNA)
RNA: GGGAGGACGAUGCGGUCUCAUGCGUCGAGUGUGAGUUUAACUGCGUCAGACGACUCGCCCGA
modifications: 2'-F pyrimidines
Question: Does B12 bind (Complement C5 [8])?
Answer: Result: binds

B13: C1q clone 43 (ssRNA)
RNA: GGGAGGACGAUGCGGUUUCUCGGCCAGUAGUUUGCGGGUGGAGUGGAGGUAUAUCUGCGUCCUCGCAGACGACUCGCCCGA
modifications: 2'-NH2 pyrimidines
Question: Does B13 bind (Complement C1q [2])?
Answer: Result: binds

B14: C1q clone 22 (ssRNA)
RNA: GGGAGGACGAUGCGGGCAUAGUGGGCAUCCCAGGGUUGCCUAACGGCAUCCGGGGUUGUUAUUGGCAGACGACUCGCCCGA
modifications: 2'-NH2 pyrimidines
Question: Does B14 bind (Complement C1q [2])?
Answer: Result: binds

B15: C1q clone 3 (ssRNA)
RNA: GGGAGGACGAUGCGGGAGGAGUGGAGGUAAACAAUAGGUCGGUAGCGACUCCCACUAACAGGCCUCAGACGACUCGCCCGA
modifications: 2'-NH2 pyrimidines
Question: Does B15 bind (Complement C1q [2])?
Answer: Result: binds

B16: C1q clone 67 (ssRNA)
RNA: GGGAGGACGAUGCGGCAGACGACUCGCCCGAGGGGAUCCCCCGGGCCUGCAGGAAUUCGAUAUCAGACGACUCGCCCGA
modifications: 2'-NH2 pyrimidines
Question: Does B16 bind (Complement C1q [9])?
Answer: Result: binds

B17: YL-79 (ssRNA)
RNA: GGGAGAUAAGAAUAAACGCUCAAGAACCACGCGGUCUCAGGCGUAGAGUCUGAGUUUACCUUGGUUUUCGACAGGAGGCUCACAACAGGC
modifications: 2'-F pyrimidines
Question: How did the Kd (Complement C5 [10]) turn out when B17 was run?
Answer: Its Kd is 15 nM.

B18: YL-13 (ssRNA)
RNA: GGGAGAUAAGAAUAAACGCUCAAGGACGCCGCGGUCUCAGGCGCUGAGUCUGAGUUUACCUGCGUCUUCGACAGGAGGCUCACAACAGGC
modifications: 2'-F pyrimidines
Question: For B18, which Kd (Complement C5 [10]) is on record?
Answer: Its Kd is 6 nM.

B19: C1q clone 40 (ssRNA)
RNA: GGGAGGACGAUGCGGCUGGUAGCAUGUGCAUUGAUGGGAGGAGUGGAGGUCACCGUCAACCGUCAGACGACUCGCCCGA
modifications: 2'-NH2 pyrimidines
Question: Does B19 bind (Complement C1q [2])?
Answer: Result: binds

B20: C9 (ssRNA)
RNA: GGGAGGACGAUGCGGUGAGCGUGUAAAACGGUUUCGAUAGAGCCUCAGACGACUCGCCCGA
modifications: 2'-F pyrimidines
Question: How did the Kd (Complement C5 [5]) turn out when B20 was run?
Answer: Its Kd is 45 nM.

B21: YL-14 (ssRNA)
RNA: GGGAGAUAAGAAUAAACGCUCAAGUACGACGCGGUCCCGUGCGUGGAGUGCGGGUUUACCUUCGUAUUCGACAGGAGGCUCACAACAGGC
modifications: 2'-F pyrimidines
Question: For B21, which Kd (Complement C5 [10]) is on record?
Answer: Its Kd is 25 nM.

B22: YL-56 (ssRNA)
RNA: GGGAGAUAAGAAUAAACGCUCAAGGUACACGCGGUCUGACGCGCUGAGUGUCAGUUUACCUUGUACUUCGACAGGAGGCUCACAACAGGC
modifications: 2'-F pyrimidines
Question: With B22 as the binder, how does the Kd (Complement C5 [10]) read?
Answer: Its Kd is 12 nM.

B23: C1q clone 14 (ssRNA)
RNA: GGGAGGACGAUGCGGCACCUCACCUCCAUAUUGCCGGUUAUCGCGUAGGGUGAGCCCAGACACGACAGACGACUCGCCCGA
modifications: 2'-NH2 pyrimidines
Question: For B23, which Kd (Complement C1q [11]) is on record?
Answer: The Kd was 2.4 nM.

Question: With GAUGCGGUCUCAUGCGUCGAGUGUGAGUUUACCUUC (ssRNA, 2'-F pyrimidines) [C6 36mer truncate] as the binder, how does the Kd (Complement C5 [12]) read?
Answer: The Kd was 50 nM.

B24: C1q clone 23c (ssRNA)
RNA: GGGAGGACGAUGCAAGUGGAGUGGAGGUAUAACGGCCGGUAGGCAUCCCACUCGGGCCUAGCUCAGACGACUCGCCCGA
modifications: 2'-NH2 pyrimidines
Question: Does B24 bind (Complement C1q [2])?
Answer: Result: binds

Question: Does CGCCGCGGUCUCAGGCGCUGAGUCUGAGUUUACCUGCG (ssRNA, 2'-F pyrimidines; selected purines 50% 2'-OMe) [M3010] bind (Complement C5 [13])?
Answer: Result: binds

Question: Does CGCCGCGGUCUCGGGCGCUGAGUCUGAGUUUACCUGCG (ssRNA, 2'-F pyrimidines; selected purines 50% 2'-OMe) [M3020] bind (Complement C5 [13])?
Answer: Result: binds

Question: Does CGCCGCGGUCUCAGGCGCUGAGUCUGAGUUUACCUGCG (ssRNA, 2'-F pyrimidines; selected purines 50% 2'-OMe) [M3030] bind (Complement C5 [13])?
Answer: Result: binds

B25: C1q clone 33 (ssRNA)
RNA: GGGAGGACGAUGCGGGUUGCUGGUAGCCUGAUGUGGGUGGAGUGAGUGGAGGGUUGAAAAAUGCAGACGACUCGCCCGA
modifications: 2'-NH2 pyrimidines
Question: For B25, which Kd (Complement C1q [11]) is on record?
Answer: The Kd was 3.85 nM.

B26: C1q clone 45 (ssRNA)
RNA: GGGAGGACGAUGCGGUGGAGUGGAGGUAUACCGGCCGGUAGCGCAUCCCACUCGGGUCUGUGCUCAGACGACUCGCCCGA
modifications: 2'-NH2 pyrimidines
Question: Which Kd (Complement C1q [11]) does the source give for B26 here?
Answer: Its Kd is 1.38 nM.
